Source: the supplement of paper PMC10126150
± gives the standard deviation of the averaged measurements.

Test system: ATP
Assay: switch fluorescence ratio, 500 uM ATP over buffer (Cy3 cluster intensity, sum of 5 cycles each) (fold (ratio)); higher = stronger signal-on switching upon ATP binding; sequences stand for … in TCGTCGGCAGCGTCAGATGTGTATAAGAGACAGTTTTTTTTTTTTTTTTTTTTTTTTT…TC
Conditions: aptamer strand: ATP DNA aptamer (quencher-CACCTGGGGGAGTATTGCGGAGGAAGG + anchor), 100 nM annealed; ATP concentration: 500 uM
In short: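 Cy3-labelled switching-strand clusters on a modified Illumina MiSeq flow-cell were annealed to 100 nM quencher-labelled ATP aptamer and imaged first in selection buffer, then after 15 min with 500 uM ATP at 22 °C. NaOH stripping and re-annealing separated each of five buffer/ATP cycles, and clusters outside 100-1000 RFU were excluded. The fluorescence ratio sums target-cycle Cy3 intensity over buffer-cycle Cy3 intensity per cluster and averages it per switch-domain sequence.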
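Also: ATP exposure 15 min at 22 °C before imaging.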

TGATGGTAGG
switch fluorescence ratio: 0.981 ± 0.031

TGATGGTTTA
switch fluorescence ratio: 0.996 ± 0.03

TGATGTAGCA
switch fluorescence ratio: 0.979 ± 0.033

TGATGTTACC
switch fluorescence ratio: 1.06 ± 0.02

TGATGTTAGT
switch fluorescence ratio: 1.01 ± 0.024

TGATGTTGAA
switch fluorescence ratio: 0.99891 ± 0.00059

TGATTAAGCA
switch fluorescence ratio: 0.999 ± 0.033

TGATTAGCAA
switch fluorescence ratio: 1.26 ± 0.3

TGATTAGGGT
switch fluorescence ratio: 1.05 ± 0.076

TGATTATAGG
switch fluorescence ratio: 0.992 ± 0.01

TGATTCGTTC
switch fluorescence ratio: 1.04 ± 0.033

TGATTCTTTT
switch fluorescence ratio: 0.974 ± 0.037

TGATTGGTCA
switch fluorescence ratio: 0.967 ± 0.012

TGATTTAAGT
switch fluorescence ratio: 0.992 ± 0.05

TGATTTACAA
switch fluorescence ratio: 1.05 ± 0.015

TGATTTGGGA
switch fluorescence ratio: 0.971 ± 0.015

TGATTTGTAT
switch fluorescence ratio: 0.968 ± 0.018

TGATTTGTTT
switch fluorescence ratio: 1 ± 0.04

TGATTTTATT
switch fluorescence ratio: 0.974 ± 0.011

TGCAAATTCG
switch fluorescence ratio: 0.999 ± 0.022

TGCAAATTTT
switch fluorescence ratio: 1 ± 0.036

TGCAACGAGG
switch fluorescence ratio: 0.998 ± 0.035

TGCAACGTCG
switch fluorescence ratio: 0.998 ± 0.019

TGCAAGAGTT
switch fluorescence ratio: 1.01 ± 0.014

TGCACATGGG
switch fluorescence ratio: 1.02 ± 0.015

TGCACGTTTT
switch fluorescence ratio: 1.09 ± 0.07

TGCAGCTTGT
switch fluorescence ratio: 1.0186 ± 0.00048

TGCAGGCCAA
switch fluorescence ratio: 1.08 ± 0.026

TGCAGGGGGC
switch fluorescence ratio: 1.02 ± 0.022

TGCAGGGGTG
switch fluorescence ratio: 1.06 ± 0.022

TGCAGGGTGG
switch fluorescence ratio: 1.05 ± 0.051

TGCATCGGGG
switch fluorescence ratio: 0.983 ± 0.032

TGCATCTGAG
switch fluorescence ratio: 1 ± 0.021

TGCATGTACC
switch fluorescence ratio: 1.21 ± 0.051

TGCATGTATT
switch fluorescence ratio: 1.012 ± 0.0039

TGCATGTGTC
switch fluorescence ratio: 0.99 ± 0.035

TGCATTACCC
switch fluorescence ratio: 1.25 ± 0.41

TGCATTCATT
switch fluorescence ratio: 0.9937 ± 0.0093

TGCATTTAGG
switch fluorescence ratio: 1.02 ± 0.032

TGCATTTGGG
switch fluorescence ratio: 0.9893 ± 0.0031

TGCCAACAGA
switch fluorescence ratio: 1.25 ± 0.39

TGCCAGGAGT
switch fluorescence ratio: 1.05 ± 0.014

TGCCAGTACG
switch fluorescence ratio: 1.064 ± 0.0044

TGCCAGTGCC
switch fluorescence ratio: 1.04 ± 0.022

TGCCATTGTT
switch fluorescence ratio: 0.942 ± 0.01

TGCCCCTGGC
switch fluorescence ratio: 0.978 ± 0.042

TGCCCGGGGA
switch fluorescence ratio: 1 ± 0.037

TGCCGAGATC
switch fluorescence ratio: 1 ± 0.013

TGCCGCAGGT
switch fluorescence ratio: 1.01 ± 0.043

TGCCGCCGGG
switch fluorescence ratio: 1.03 ± 0.011

TGCCGGGGCT
switch fluorescence ratio: 0.967 ± 0.037

TGCCGGGTGG
switch fluorescence ratio: 1 ± 0.063

TGCCGTTTTT
switch fluorescence ratio: 1.02 ± 0.069

TGCCTATGGG
switch fluorescence ratio: 0.977 ± 0.029

TGCCTGGGGA
switch fluorescence ratio: 1.2 ± 0.25

TGCCTGGTAT
switch fluorescence ratio: 0.984 ± 0.019

TGCCTGTGCG
switch fluorescence ratio: 1.04 ± 0.031

TGCGAATAGG
switch fluorescence ratio: 1.0088 ± 0.00022

TGCGAATTAG
switch fluorescence ratio: 0.998 ± 0.019

TGCGACTCGG
switch fluorescence ratio: 0.9988 ± 0.0056

TGCGACTGGT
switch fluorescence ratio: 0.942 ± 0.024

TGCGACTTTG
switch fluorescence ratio: 1.03 ± 0.018

TGCGAGGGGG
switch fluorescence ratio: 1.01 ± 0.033

TGCGAGGGTT
switch fluorescence ratio: 1.01 ± 0.093

TGCGAGTATC
switch fluorescence ratio: 1.02 ± 0.018

TGCGATTGTT
switch fluorescence ratio: 1.01 ± 0.056

TGCGATTTTT
switch fluorescence ratio: 1.01 ± 0.042

TGCGCACGGG
switch fluorescence ratio: 1.03 ± 0.019

TGCGCCAGGG
switch fluorescence ratio: 1.263 ± 0.0037

TGCGCCATTT
switch fluorescence ratio: 1.13 ± 0.26

TGCGCTGTA
switch fluorescence ratio: 1.02 ± 0.018

TGCGCTTATA
switch fluorescence ratio: 1.09 ± 0.015

TGCGCTTGTG
switch fluorescence ratio: 0.97 ± 0.025

TGCGGAATAT
switch fluorescence ratio: 1.14 ± 0.064

TGCGGATATG
switch fluorescence ratio: 0.982 ± 0.023

TGCGGATGGT
switch fluorescence ratio: 0.98 ± 0.016

TGCGGGCGGC
switch fluorescence ratio: 0.98 ± 0.024

TGCGGGGAGA
switch fluorescence ratio: 1.02 ± 0.024

TGCGGGGCGG
switch fluorescence ratio: 1.02 ± 0.034

TGCGGGGGG
switch fluorescence ratio: 0.9855 ± 0.0037

TGCGGGGGGT
switch fluorescence ratio: 1.025 ± 0.0086

TGCGGGGGTC
switch fluorescence ratio: 1.04 ± 0.088

TGCGGGTGAT
switch fluorescence ratio: 0.9857 ± 0.004

TGCGGGTTAA
switch fluorescence ratio: 1.02 ± 0.024

TGCGGGTTTC
switch fluorescence ratio: 1.04 ± 0.017

TGCGGTAAA
switch fluorescence ratio: 1.09 ± 0.14

TGCGGTATGT
switch fluorescence ratio: 1.019 ± 0.0014

TGCGGTGATG
switch fluorescence ratio: 0.985 ± 0.016

TGCGGTGTAG
switch fluorescence ratio: 1.01 ± 0.011

TGCGTAGAGG
switch fluorescence ratio: 1.037 ± 0.006

TGCGTATATT
switch fluorescence ratio: 0.98 ± 0.017

TGCGTCAACT
switch fluorescence ratio: 1.01 ± 0.023

TGCGTCAGCC
switch fluorescence ratio: 1.04 ± 0.12

TGCGTCTATT
switch fluorescence ratio: 1.05 ± 0.078

TGCGTTGCGG
switch fluorescence ratio: 0.978 ± 0.029

TGCTAAAGGG
switch fluorescence ratio: 0.984 ± 0.036

TGCTAAATTG
switch fluorescence ratio: 1.015 ± 0.0015

TGCTACAAGG
switch fluorescence ratio: 1.03 ± 0.011

TGCTAGCCGG
switch fluorescence ratio: 1 ± 0.015

TGCTAGCCTG
switch fluorescence ratio: 0.9955 ± 0.004

TGCTAGGCG
switch fluorescence ratio: 1.02 ± 0.032

TGCTAGTGGT
switch fluorescence ratio: 1.01 ± 0.016

TGCTATATGT
switch fluorescence ratio: 0.993 ± 0.013

TGCTATCATC
switch fluorescence ratio: 0.989 ± 0.02

TGCTCCTTGC
switch fluorescence ratio: 1.08 ± 0.062

TGCTCGGGGG
switch fluorescence ratio: 1.15 ± 0.17

TGCTCTGCTA
switch fluorescence ratio: 1.683 ± 0.0023

TGCTCTTAGT
switch fluorescence ratio: 1.04 ± 0.079

TGCTGAAAAC
switch fluorescence ratio: 0.974 ± 0.028

TGCTGAAGGG
switch fluorescence ratio: 1.04 ± 0.03

TGCTGGATGG
switch fluorescence ratio: 0.975 ± 0.032

TGCTGGGGCT
switch fluorescence ratio: 0.9847 ± 0.0033

TGCTGTCGGC
switch fluorescence ratio: 1.03 ± 0.029

TGCTGTTTTT
switch fluorescence ratio: 0.98095 ± 0.00061

TGCTTAACAT
switch fluorescence ratio: 1.01 ± 0.019

TGCTTATCGC
switch fluorescence ratio: 0.995 ± 0.024

TGCTTCAGGG
switch fluorescence ratio: 1.03 ± 0.014

TGCTTCCCTC
switch fluorescence ratio: 1.1 ± 0.018

TGCTTCTAAT
switch fluorescence ratio: 1.02 ± 0.021

TGCTTGAGCA
switch fluorescence ratio: 0.974 ± 0.019

TGCTTGCCTT
switch fluorescence ratio: 0.9886 ± 0.0096

TGCTTGGAGG
switch fluorescence ratio: 0.996 ± 0.014

TGCTTGGGGA
switch fluorescence ratio: 0.983 ± 0.082

TGCTTGTGGG
switch fluorescence ratio: 1.026 ± 0.0015

TGCTTGTTTT
switch fluorescence ratio: 0.9912 ± 0.0038

TGCTTTATCT
switch fluorescence ratio: 1.012 ± 0.0023

TGCTTTCGTC
switch fluorescence ratio: 0.945 ± 0.031

TGCTTTGGTT
switch fluorescence ratio: 1.01 ± 0.055

TGCTTTTACG
switch fluorescence ratio: 1.04 ± 0.064

TGGAAAACCG
switch fluorescence ratio: 1.08 ± 0.022

TGGAAAAGGA
switch fluorescence ratio: 0.9626 ± 0.0095

TGGAAAATTT
switch fluorescence ratio: 1.01 ± 0.0059

TGGAAAGGGA
switch fluorescence ratio: 1.01 ± 0.044

TGGAAATAGG
switch fluorescence ratio: 0.981 ± 0.039

TGGAAATCGC
switch fluorescence ratio: 1 ± 0.04

TGGAAATCGT
switch fluorescence ratio: 1.07 ± 0.083

TGGAACACCT
switch fluorescence ratio: 1.13 ± 0.041

TGGAACTATA
switch fluorescence ratio: 1.02 ± 0.018

TGGAAGGAGC
switch fluorescence ratio: 1.07 ± 0.049

TGGAAGGATT
switch fluorescence ratio: 1.01 ± 0.015

TGGAAGGGGG
switch fluorescence ratio: 1.01 ± 0.051

TGGAAGGGGT
switch fluorescence ratio: 1.09 ± 0.14

TGGAAGTGGG
switch fluorescence ratio: 1.03 ± 0.042

TGGAATAGGT
switch fluorescence ratio: 0.999 ± 0.031

TGGAATGCGG
switch fluorescence ratio: 0.99792 ± 0.00061

TGGAATGGGT
switch fluorescence ratio: 0.987 ± 0.032

TGGACCGGGC
switch fluorescence ratio: 1 ± 0.025

TGGACCTGAA
switch fluorescence ratio: 1.1 ± 0.038

TGGACGGCGC
switch fluorescence ratio: 1.04 ± 0.016

TGGACTCGGA
switch fluorescence ratio: 1.03 ± 0.071

TGGACTTGGG
switch fluorescence ratio: 0.983 ± 0.023

TGGAGAATTT
switch fluorescence ratio: 1.02 ± 0.044

TGGAGCCTGG
switch fluorescence ratio: 0.984 ± 0.021

TGGAGCGAGG
switch fluorescence ratio: 1.02 ± 0.00015

TGGAGGACTA
switch fluorescence ratio: 1.14 ± 0.13

TGGAGGAGGA
switch fluorescence ratio: 0.982 ± 0.025

TGGAGGGCTA
switch fluorescence ratio: 0.97 ± 0.032

TGGAGGGTGG
switch fluorescence ratio: 1.01 ± 0.019

TGGAGGTGTG
switch fluorescence ratio: 0.977 ± 0.01

TGGAGTAGGA
switch fluorescence ratio: 1.04 ± 0.051

TGGAGTGTTC
switch fluorescence ratio: 1.06 ± 0.011

TGGAGTGTTT
switch fluorescence ratio: 0.94 ± 0.021

TGGATAGGGG
switch fluorescence ratio: 1.03 ± 0.012

TGGATATAGA
switch fluorescence ratio: 1.01 ± 0.017

TGGATCAGAG
switch fluorescence ratio: 0.9984 ± 0.0013

TGGATCATTT
switch fluorescence ratio: 0.999 ± 0.022

TGGATGACGC
switch fluorescence ratio: 0.96 ± 0.12

TGGATGACGG
switch fluorescence ratio: 0.972 ± 0.13

TGGATGGGGT
switch fluorescence ratio: 0.973 ± 0.027

TGGATGTTAT
switch fluorescence ratio: 1.02 ± 0.092

TGGATTATGA
switch fluorescence ratio: 0.955 ± 0.011

TGGATTCATG
switch fluorescence ratio: 0.978 ± 0.06

TGGATTCCTA
switch fluorescence ratio: 1.002 ± 0.01

TGGATTCTCT
switch fluorescence ratio: 0.997 ± 0.017

TGGATTGACT
switch fluorescence ratio: 1.058 ± 0.0013

TGGATTTAGA
switch fluorescence ratio: 1.02 ± 0.017

TGGATTTCGG
switch fluorescence ratio: 1.016 ± 0.0065

TGGATTTGCA
switch fluorescence ratio: 1.03 ± 0.022

TGGATTTGGG
switch fluorescence ratio: 0.9969 ± 0.0066

TGGATTTGTC
switch fluorescence ratio: 0.99 ± 0.024

TGGATTTTCA
switch fluorescence ratio: 0.989 ± 0.03

TGGCAAAATG
switch fluorescence ratio: 0.9915 ± 0.0088

TGGCAATTTG
switch fluorescence ratio: 1 ± 0.033

TGGCACCATT
switch fluorescence ratio: 1.06 ± 0.047

TGGCAGACGG
switch fluorescence ratio: 1.01 ± 0.038

TGGCAGAGGG
switch fluorescence ratio: 1 ± 0.044

TGGCAGGGGG
switch fluorescence ratio: 0.945 ± 0.029

TGGCAGGGTC
switch fluorescence ratio: 0.9774 ± 0.0077

TGGCATTCGT
switch fluorescence ratio: 0.9757 ± 0.0091

TGGCCACTTA
switch fluorescence ratio: 1.073 ± 0.0058

TGGCCAGCTC
switch fluorescence ratio: 0.975 ± 0.016

TGGCCATAGG
switch fluorescence ratio: 0.999 ± 0.041

TGGCCCGGGC
switch fluorescence ratio: 1.02 ± 0.017

TGGCCGCGGA
switch fluorescence ratio: 1.01 ± 0.03

TGGCCGTATT
switch fluorescence ratio: 1 ± 0.056

TGGCCTCATC
switch fluorescence ratio: 1.02 ± 0.058

TGGCCTGCTG
switch fluorescence ratio: 0.9919 ± 0.0026

TGGCCTGGGA
switch fluorescence ratio: 1.026 ± 0.0056

TGGCGATTTT
switch fluorescence ratio: 0.978 ± 0.048

TGGCGCATTC
switch fluorescence ratio: 1.3 ± 0.15
